B1: Recombinant human MANF protein (natural protein)
chain: LRPGDCEVCISYLGRFYQDLKDRDVTFSPATIENELIKFCREARGKENRLCYYIGATDDAATKIINEVSKPLAHHIPVEKICEKLKKKDSQICELKYDKQIDLSTVDLKKLRVKELKKILDDWGETCKGCAEKSDYIRKINELMPKYAPKAASARTDL
B2: Recombinant MANF E153A mutant protein (natural protein)
chain: LRPGDCEVCISYLGRFYQDLKDRDVTFSPATIENELIKFCREARGKENRLCYYIGATDDAATKIINEVSKPLAHHIPVEKICEKLKKKDSQICELKYDKQIDLSTVDLKKLRVKELKKILDDWGETCKGCAAKSDYIRKINELMPKYAPKAASARTDL

How the values were obtained:
[1] = target: T1, Recombinant hamster GRP78 protein (hamster, UniProt G3I8R9 19-654, RED-tris-NTA dye held on the His-tag); experiment: MST; 100 uM CaCl2
T1 sequence (G3I8R9 19-654): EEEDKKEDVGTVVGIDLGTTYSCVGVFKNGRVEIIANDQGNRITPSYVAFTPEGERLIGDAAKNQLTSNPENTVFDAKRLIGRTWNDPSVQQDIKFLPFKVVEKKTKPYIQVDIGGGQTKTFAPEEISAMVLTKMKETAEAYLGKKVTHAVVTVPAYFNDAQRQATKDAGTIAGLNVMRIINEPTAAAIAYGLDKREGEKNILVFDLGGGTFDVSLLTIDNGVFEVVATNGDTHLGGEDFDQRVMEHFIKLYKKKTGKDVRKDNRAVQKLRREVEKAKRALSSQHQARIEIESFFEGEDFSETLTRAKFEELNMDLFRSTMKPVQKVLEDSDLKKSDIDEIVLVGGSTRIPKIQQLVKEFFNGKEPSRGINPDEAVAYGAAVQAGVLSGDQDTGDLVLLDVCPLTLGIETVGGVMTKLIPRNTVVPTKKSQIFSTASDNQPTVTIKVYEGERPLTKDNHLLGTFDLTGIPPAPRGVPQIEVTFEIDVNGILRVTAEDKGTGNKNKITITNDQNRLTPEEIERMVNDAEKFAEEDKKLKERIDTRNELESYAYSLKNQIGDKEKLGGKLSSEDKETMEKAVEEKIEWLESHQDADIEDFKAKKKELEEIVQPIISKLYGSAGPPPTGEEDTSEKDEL

[2] = target: T1, Recombinant hamster GRP78 protein; experiment: MST; 1 uM CaCl2
[3] = target: T1, Recombinant hamster GRP78 protein; experiment: MST; 200 uM CaCl2
[4] = target: Substrate-binding domain (SBD) of GRP78 (RED-tris-NTA dye held on the His-tag); experiment: MST
Substrate-binding domain (SBD) of GRP78 (RED-tris-NTA dye held on the His-tag), sequence (chain, as listed by the source): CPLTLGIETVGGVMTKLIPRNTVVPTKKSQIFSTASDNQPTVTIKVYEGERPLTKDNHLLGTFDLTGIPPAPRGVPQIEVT

[5] = target: T1, Recombinant hamster GRP78 protein; experiment: MST

Binder | Kd [1] [nM] | Kd [2] [nM] | Kd [3] [nM] | Kd [4] [nM] | Kd [5] [nM]
B1 | 500 | 570 | 430 | 1400 | 216
B2 | – | – | – | – | 269

Reference: publication PMC7949057 (2021)
